The record followed here is article PMC7854685, “Histone Parylation factor 1 contributes to the inhibition of PARP1 by cancer drugs” (Nature Communications, 2021).

Test [1] concerns the target T1, Poly-(ADP-ribose) polymerase 1 (PARP1), wild type, labelled with Alexa488, bound to p18mer DNA (UniProt P09874 1-1014, Alexa488 C4 maleimide label (extent of labeling typically 50-100%)).
T1 construct: Poly-(ADP-ribose) polymerase 1 (PARP1), wild type; In the assay premixed with p18mer double-stranded DNA (0.2 uM); the DNA is no protein chain; also called PARP1 - p18mer complex; 488-labeled PARP1
Briefly: FRET or BRET; as a3 but with olaparib (1 uM): Alexa647-HPF1 titrated into Alexa488-PARP1 (0.2 uM) premixed with p18mer DNA (0.2 uM) and olaparib; binding buffer. To be noted: both partners purified.

Test [2] addresses T1, Poly-(ADP-ribose) polymerase 1 (PARP1), …. The test is described as follows: FRET or BRET; Alexa647-HPF1 (0.6-10,000 nM) titrated into Alexa488-PARP1 (0.2 uM) premixed with p18mer DNA (0.2 uM) and DMSO (control, no olaparib); binding buffer 50 mM Tris-HCl pH 8.0, 50 mM NaCl, 1 mM MgCl2, 0.1 mM EDTA, 0.01% IGEPAL. As to conditions: both partners purified.

T1 sequence (P09874 whole entry): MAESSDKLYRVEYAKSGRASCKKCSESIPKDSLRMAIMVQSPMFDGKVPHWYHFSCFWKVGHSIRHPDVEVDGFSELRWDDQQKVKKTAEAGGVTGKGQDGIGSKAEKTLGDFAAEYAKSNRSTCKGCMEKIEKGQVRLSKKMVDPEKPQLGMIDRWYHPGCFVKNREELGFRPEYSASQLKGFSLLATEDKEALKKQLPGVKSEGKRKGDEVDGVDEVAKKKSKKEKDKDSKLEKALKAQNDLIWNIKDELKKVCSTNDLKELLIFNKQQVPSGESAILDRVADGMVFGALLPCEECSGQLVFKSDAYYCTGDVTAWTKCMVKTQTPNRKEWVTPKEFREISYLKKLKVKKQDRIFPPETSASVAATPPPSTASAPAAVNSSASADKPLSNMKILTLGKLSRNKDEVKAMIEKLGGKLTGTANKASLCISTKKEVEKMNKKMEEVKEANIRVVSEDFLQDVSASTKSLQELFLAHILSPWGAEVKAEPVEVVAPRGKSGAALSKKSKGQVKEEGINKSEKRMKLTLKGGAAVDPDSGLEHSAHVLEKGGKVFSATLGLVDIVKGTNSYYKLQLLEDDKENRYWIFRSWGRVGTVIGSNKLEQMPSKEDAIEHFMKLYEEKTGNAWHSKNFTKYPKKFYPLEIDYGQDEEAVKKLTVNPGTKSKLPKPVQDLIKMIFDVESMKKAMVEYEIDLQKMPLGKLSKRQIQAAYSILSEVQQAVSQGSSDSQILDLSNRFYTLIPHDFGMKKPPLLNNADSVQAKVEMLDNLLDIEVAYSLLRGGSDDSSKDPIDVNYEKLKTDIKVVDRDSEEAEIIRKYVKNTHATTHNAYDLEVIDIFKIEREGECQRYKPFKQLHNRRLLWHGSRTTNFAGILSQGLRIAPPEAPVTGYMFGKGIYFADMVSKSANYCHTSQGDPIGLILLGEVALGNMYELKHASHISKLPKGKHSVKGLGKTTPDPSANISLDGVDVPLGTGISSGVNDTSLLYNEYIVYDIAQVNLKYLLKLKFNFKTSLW

B1: Histone PARylation factor 1 (HPF1), labelled with Alexa647 (natural protein)
chain: LRKEVENHYKLSLPEDFYHFWKFCEELDPEKPSDSLSASLGLQLVGPYDILAGKHKTKKKSTGLNFNLHWRFYYDPPEFQTIIIGDNKTQYHMGYFRDSPDEFPVYVGINEAKKNCIIVPNGDNVFAAVKLFLTKKLREITDKKKINLLKNIDEKLTEAARELGYSLEQRTVKMKQRDKKVVTKTFHGAGLVVPVDKNDVGYRELPETDADLKRICKTIVEAASDEERLKAFAPIQEMMTFVQFANDECDYGMGLELGMDLFCYGSHYFHKVAGQLLPLAYNLLKRNLFAEIIEEHLANRSQENIDQLAA
modifications: Alexa647 C2 maleimide label (extent of labeling typically 50-100%)
notes: Histone PARylation factor 1 (HPF1); also called wild-type protein
For the molecule B1, the Kd in test [1] was 1200 nM; in test [2], 3800 nM.
